Results taken from publication doi:10.1101/452482 (bioRxiv, 2018).
Read-outs that look alike come from different tables or passages of the source. Ends that are not written are not given here. fluorescein = fluorescein label at the N-terminus of the peptide

Columns and labels:
[1] = target: N-CoRNID labelled with Atto647N (mouse) (UniProt Q60974); assay: MST
[2] = target: N-CoRNID labelled with Atto647N (mouse) (UniProt Q60974); assay: MST; remark: listed apart in the source
[3] = target: N-CoRNID, nuclear receptor interaction domain of N-CoR (Gln2059 to Glu2325) (mouse) (UniProt Q60974); assay: SAXS
[4] = target: N-CoRNID, nuclear receptor interaction domain of N-CoR (Gln2059 to Glu2325) (mouse) (UniProt Q60974); assay: AUC + other: RPLC-UV/MS
[5] = target: fluorescent peptide CoRNR1 of N-CoR; assay: fluorescence polarisation
[6] = target: fluorescent peptide CoRNR2 of N-CoR; assay: fluorescence polarisation
[7] = target: T1, RXR (RXRα ligand-binding domain) (mouse, UniProt P28700 227-467); assay: AUC + other: RPLC-UV/MS
T1 sequence (looked up): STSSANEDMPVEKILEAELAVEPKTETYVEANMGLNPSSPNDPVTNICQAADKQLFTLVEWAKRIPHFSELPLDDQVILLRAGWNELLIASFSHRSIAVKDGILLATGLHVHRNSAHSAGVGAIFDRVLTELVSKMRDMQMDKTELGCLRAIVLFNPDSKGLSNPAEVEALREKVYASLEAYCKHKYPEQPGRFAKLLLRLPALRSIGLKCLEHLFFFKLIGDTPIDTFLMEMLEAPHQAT

[8] = target: T1, RXR (RXRα ligand-binding domain); assay: fluorescence polarisation

Chain of N-CoRNID labelled with Atto647N (mouse) (Q60974 2059-2325): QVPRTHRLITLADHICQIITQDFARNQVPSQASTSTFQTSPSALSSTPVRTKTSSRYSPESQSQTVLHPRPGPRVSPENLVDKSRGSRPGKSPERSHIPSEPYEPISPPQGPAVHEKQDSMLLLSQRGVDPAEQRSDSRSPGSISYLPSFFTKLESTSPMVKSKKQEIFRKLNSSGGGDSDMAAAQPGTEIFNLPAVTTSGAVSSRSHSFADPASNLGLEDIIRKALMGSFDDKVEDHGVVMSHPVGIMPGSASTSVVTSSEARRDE
Chain of N-CoRNID, nuclear receptor interaction domain of N-CoR (Gln2059 to Glu2325) (mouse) (Q60974 2059-2325): as above

RXR/RAR heterodimer (mRXRα/hRARα), ligand-binding domains (from UniProt P28700 1-467; P10276 1-462) (complex)
Kd [1]: 0.21 µM | Kd [2]: 8.6 µM | population of unbound species [3]: 51% | stoichiometry N [4]: 1 | Kd [5]: 1.68 µM | Kd [6]: 1.47 µM

RXR/RARI396E heterodimer (mRXRα/hRARαI396E) (from UniProt P28700 1-467; P10276 1-462) (complex)
Kd [1]: 4.42 µM

B1: RAR (RARα ligand-binding domain) (domain or fragment, human, UniProt P10276 176-421, looked up)
chain: ESYTLTPEVGELIEKVRKAHQETFPALCQLGKYTTNNSSEQRVSLDIDLWDKFSELSTKCIIKTVEFAKQLPGFTTLTIADQITLLKAACLDILILRICTRYTPEQDTMTFSDGLTLNRTQMHNAGFGPLTDLVFAFANQLLPLEMDDAETGLLSAICLICGDRQDLEQPDRVDMLQEPLLEALKVYVRKRRPSRPHMFPKMLMKITDLRSISAKGAERVITLKMEIPGSMPPLIQEMLENSEGLD
stoichiometry N [7]: 1

B2: fluorescent peptide CoRNR2 of N-CoR (peptide)
peptide: fluorescein-DPASNLGLEDIIRKALMGSFD
Kd [8]: 22.5 µM
